According to US6462173B1, “Inhibitors of phosphoserine and phosphothreonine-proline-specific isomerases” (Max-Planck-Gesellschaft zur Forderung der, priority 1997, dated 2002):

B1: Parvulin: prototype of the Pin1 family of PPIases, R68 and R69 replaced by Glu (protein, UniProt P0A9L5 2-93, looked up)
Peptidyl-prolyl cis-trans …: AKTAAALHILVKEEKLALDLLEQIKNGADFGKLAKKHSICPSGKRGGDLGEFRQGQMVPAFDKVVFSCPVLEPTGPLHTQFGYHIIKVLYRN
B2: Cdc25C: cell cycle regulatory protein, predicted Pin1 substrate; human Cdc25C in HeLa extracts (protein)
chain: STELFSSTREEGSSGSGPSFRSNQRKMLNLLLERDTSFTVCPDVPRTPVGKFLGDSANLSILSGGTPKRCLDLSNLSSGEITATQLTTSADLDETGHLDSSGLQEVHLAGMNHDQHLMKCSPAQLLCSTPNGLDRGHRKRDAMCSSSANKENDNGNLVDSEMKYLGSPITTVPKLDKNPNLGEDQAEEISDELMEFSLKDQEAKVSRSGLYRSPSMPENLNRPRLKQVEKFKDNTIPDKVKKKYFSGQGKLRKGLCLKKTVSLCDITITQMLEEDSNQGHLIGDFSKVCALPTVSGKHQDLKYVNPETVAALLSGKFQGLIEKFYVIDCRYPYEYLGGHIQGALNLYSQEELFNFFLKKPIVPLDTQKRIIIVFHCEFSSERGPRMCRCLREEDRSLNQYPALYYPELYILKGGYRDFFPEYMELCEPQSYCPMHHQDHKTELLRCRSQSKVQEGERQLREQIALLVKDMSP

Tests used:
Cdc25, Cdc27 = experiment: Binding of GST-Pin1 mutants to Cdc25 or Cdc27
Method: (§1) To detect Pin1-binding proteins, either HeLa cells were lysed in or Xenopus extracts were diluted in a buffer (buffer A) containing 50 mM Tris-HCl, pH 8.0, 200 mM NaCl, 100 mM NaF, 1 mM sodium orthovanadate, 10% glycerol, 1% Triton X100, 10 μg/ml aprotinin, 50 μg/ml phenylmethylsulfonyl fluoride and 1 mM DTT. The lysates were preclarified with boiled S. aureus bacteria (CalBiochem) and then incubated with 10 μl of agarose beads containing various GST-Pin1 proteins or control GST for 2 h at 4° C. The precipitated proteins were washed 5 times in the same buffer and subjected to immunoblotting analysis. Immunoprecipitation and immunoblotting analysis using MPM-2 antibody (Davis et al. 1983), which was kindly provided by J. Kuang, Pin1 antibodies (Lu et al., 1996, kindly provided by M. White or newly generated), anti-phospho.Tyr antibody (UBI), anti-Cdc25C (Ogg, et al., 1994) (from H. Piwnica-Worms and Santa Cruz Biotechnology), anti-Cdc27, anti-Plk1 (Zymed), anti-Cdc2 (Solomon, M. J., M. Glotzer, T. H. Lee, M. Philippe and M. W. Kirschner. Cell 63:1013-1024 (1991), anti-human Myt1, anti-human cyclin B1 and anti-Xenopus cyclin B were performed, as described previously in Lu and Hunter, 1995; Lu et al., 1996).
Several known mitotic regulators such as cyclin B, Cdc25, Myt1, Plk1 and Cdc27 are phosphorylated at mitosis. […]

MPM-2 antigens = experiment: GST-Pin1 pull-down / depletion of MPM-2 antigens from HeLa cell extracts, MPM-2 immunoblotting; type: binding, human; conditions: mitotic HeLa cell extracts, GST fusion proteins
Method: as §1
To determine whether GST-Pin1 can deplete MPM-2 antigens and to estimate what concentrations of Pin1 are required to completely deplete MPM-2 antigens, mitotic extracts were incubated with different amounts of GST-Pin1, followed by analyzing MPM-2 antigens remaining in the depleted supernatants. The total cellular Pin1 concentration in HeLa cells was estimated to be about 0.5 μM, based on immunoblotting analysis using anti-Pin1 antibodies with recombinant Pin1 protein as a standard.
To determine if the Pin1 mutants interact with mitotic phosphoproteins, GST-Pin1, -Pin1^R68,69A and -Pin1^H59A fusion proteins were incubated with interphase or mitotic HeLa cell extracts and associated proteins subjected to MPM-2 immunoblotting analysis. […] A few proteins including the most strongly reacting p55 band could still be recognized. […] Thus, mutating the residues that are implicated in binding either the substrate's putative phosphate group or the substrate's Pro residue abolish the ability of Pin1 to bind MPM-2 antigens.

mitotic GST-Cdc25 = biological target: T1, mitotic GST-Cdc25 (Xenopus laevis, UniProt P30309); experiment: Cdc25 activity assay (activation of cyclin B/Cdc2, H1 kinase); type: biochemical; conditions: 0.67 μM protein, 1 μM mitotic Cdc25
T1 construct: made in house
T1 sequence (P30309 1-550): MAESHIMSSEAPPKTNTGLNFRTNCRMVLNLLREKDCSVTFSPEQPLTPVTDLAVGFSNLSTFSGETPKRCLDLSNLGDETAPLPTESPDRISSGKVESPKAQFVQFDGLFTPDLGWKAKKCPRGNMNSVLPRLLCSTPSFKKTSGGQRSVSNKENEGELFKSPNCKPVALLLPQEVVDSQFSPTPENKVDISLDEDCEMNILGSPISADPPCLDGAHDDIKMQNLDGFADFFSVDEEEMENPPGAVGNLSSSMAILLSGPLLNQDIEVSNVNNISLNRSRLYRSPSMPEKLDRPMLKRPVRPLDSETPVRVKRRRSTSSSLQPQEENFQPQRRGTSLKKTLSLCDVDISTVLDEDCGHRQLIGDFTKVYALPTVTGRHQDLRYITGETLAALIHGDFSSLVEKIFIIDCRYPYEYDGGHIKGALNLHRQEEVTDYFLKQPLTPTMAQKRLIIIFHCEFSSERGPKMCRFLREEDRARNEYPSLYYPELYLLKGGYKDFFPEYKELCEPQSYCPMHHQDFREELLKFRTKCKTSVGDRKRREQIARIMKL
Method: Cdc2 was assayed using histone H1 as a substrate, as previously described in Murray, 1991; Lu and Hunter, (1995).
A subthreshold concentration of GST cyclin B (10 μg) was added to 1 ml of Xenopus interphase extract for thirty min at room temperature (Solomon, M. J., M. Glotzer, T. H. Lee, M. Philippe and M. W. Kirschner, Cell 63:1013-1024 (1990). This was diluted 8 fold in XB+3 mM DTT, rotated for 1 h with 3 ml of GST agarose beads, washed 3 times in XBIP (XB+500 mM NaCl and 1% NP40+2 mM DTT), washed 2 times (once overnight) in EB (80 mM β glycerol phosphate, 15 mM EGTA, 15 mM MgCl2)+2 mM DTT, 500 mM NaCl and 1% NP40, and finally twice with EB+10 mM DTT. These Cdc25 assay beads were stored at 4° C. for up to 1 month. Mitotic GST-Cdc25 was purified by incubating 22 μg of GST-Cdc25, in a Xenopus mitotic extract for 30 min at 23° C., this was diluted 8 fold in XB and rotated with 50 μl of glutathione-Agarose beads (Sigma) for 1 hr at 4° C. The beads were washed 5 times in XB-IP, twice in XB+2 mM DTT and eluted in 25 μl XB+2 mM reduced GSH. The final concentration of Mitotic GST-Cdc25 was 0.36 mg/ml. […] Phosphoimager analysis of the H1 kinase assays were quantified by the Molecular Dynamics ImageQuant 3.3 software. […] The most reproducible way to quantify the Cdc25 activity in this assay was by determining the endpoint dilution of Cdc25 which could activate Cdc2. […]

Pin1 [1] = biological target: T2, Pin1 (Homo sapiens, UniProt Q13526); experiment: Precipitation with GST-Pin1 beads of synthesized phosphoproteins incubated with interphase and mitotic Xenopus extracts; type: binding; set-up: key: +: a week but above background interaction; ++: readily detectable interaction; +++: strong interaction; conditions: mitotic Xenopus extracts
T2 construct: fusion protein containing full length Pin1 was bacterially expressed, purified; made in house
T2 sequence (Q13526 whole entry, the tested form may be a part): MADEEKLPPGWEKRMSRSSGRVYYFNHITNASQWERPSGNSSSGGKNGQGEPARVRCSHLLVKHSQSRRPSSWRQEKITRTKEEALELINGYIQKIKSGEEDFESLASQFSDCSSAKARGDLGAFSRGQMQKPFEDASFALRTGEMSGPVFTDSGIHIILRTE
Method: The binding between Pin1 and all selected mitotic phosphoproteins was assayed by incubating synthesized proteins with interphase and mitotic Xenopus extracts, followed by precipitation with GST-Pin1beads. The Pin1 interactions with those proteins indicated with * were also confirmed by GST-Pin1 pull-down assay from endogenous interphase and mitotic HeLa cell extracts. +, a week but above background interaction; ++, readily detectable interaction; +++, strong interaction.
The mitotic phosphoproteins were translated in vitro using the TNT coupled transcription/translation kit (Promega) in a total volume of 10 μl in the presence of 8 μCi [^35S]methionine (1000 Ci/mmol) for 2 h at 30° C. They were then incubated in xenopus interphase and mitotic extracts as described (Stukenberg et al., 1997). These incubated clones were precipitated by Pin1 beads as described below. The Xenopus Mos and Weel clones were a kind gift of M. Murakami, G, F. Woude and J. Cooper; the Xenopus Cdc25 clone was a generous gift of W. Dunphy, T3 and T3S2 Cdc25 mutants were kindly provided by J. Maller (Izumi and Maller, 1993).
as §1
To gain a sense of the generality of the interaction between Pin1 and mitotic phosphoproteins and to confirm the Pin1 interaction with target proteins is indeed mediated by phosphorylation, the ability of Pin1 to bind other known mitotic phosphoproteins and a set of mitotic phosphoproteins identified by a systematic phosphoprotein screen (Stukenberg et al., Curr Biol 7:338-348 (1997). Proteins synthesized in vitro were phosphorylated in a cell cycle specific manner by incubating them in either Xenopus interphace or mitotic extracts. These labeled protein were subsequently incubated with GST-Pin1 beads that were extensively washed and the bound proteins analyzed by SDS-PAGE. To validate this method, Cdc25 was first tested. Again, the mitotically phosphorylated form of in vitro translated Cdc25 could be precipitated by GST-Pin1 beads. However, Cdc25 was not recognized by Pin1 if it was incubated in interphase extracts. […] Out of the 13 mitotic phosphoproteins examined, Pin1 bound 10 in a mitosis and phosphorylation-dependent manner (summarized in Table 1), including Weel, MP75 and MP110, MP75 and MP110 are Xenopus proteins related to microtubule-associated protein E-MAP-115 and the fission yeast G2 transcription factor Cdc5, respectively.

Pin1 [2] = biological target: T2, Pin1; experiment: Pin1 precipitation from interphase and mitotic HeLa extracts probed with antibodies to known mitotic phosphoproteins; type: binding
Method: as §1
Several known mitotic regulators such as cyclin B, Cdc25, Myt1, Plk1 and Cdc27 are phosphorylated at mitosis. To identify at least a few of the many Pin1 binding proteins, Pin1-binding proteins were precipitated from HeLa cells, or Xenopus extracts and probed with antibodies specific for known mitotic phosphoproteins. As shown previously, levels of Plk1 and cyclin B1 increased at mitosis, whereas similar amounts of Cdc25C were present in interphase and mitotic HeLa cells. […] Similarly, only the mitotic, but not the interphase form of Xenopus Cdc27 was precipitated by Pin1.

Pin1 [3] = biological target: T2, Pin1; experiment: Confirmation of interaction between Pin1 and predicted Pin1 substrates; conditions: Pin1 binding confirmed in vitro (SC35 inferred from colocalization)
Method: On the basis of amino acid preferences deduced in the 6 positions surrounding the pS-P motif for optimal Pin1 binding, a weighted screening of the SWISS-PROT sequence database. Protein sequence database screening was performed with the program INDOVINATOR, using an entropy-based weighing technique to score for relative information content at each amino acid position flanking the pS/pT-P motif with the quantitative peptide library results, which are shown qualitatively in Table 3. […] Many of these proteins are involved in regulation of the cell cycle, cytoskeletal/spindle structure, DNA replication, transcription or RNA processing (Table 4).
Several of these predicted proteins, such as Rab4, Cdc25 and NIMA, undergo mitosis-specific phosphorylation (R. Heald and F. McKeon, Cell 61:579 (1990); E. Bailly, et al., Nature 350:715 (1991); A. Blangy, et al., Cell 83:1159 (1995): J. Kuang, et al., Mol. Biol. Cell 5:135 (1994); X. S. Ye, et al., EMBO J. 14:986 (1995)). Cdc25 and NIMA also binds to Pin1 in a phosphorylation-dependent manner, as described herein. Other proteins identified in this search, however, had not been previously suspected of interacting with Pin1; therefore, a few were further investigated as example cases. […] Thus, Pin1 binds a wide functional range of mitotic phosphoproteins.

[4] = tested on: phosphorylated and unphosphorylated peptide substrates; AEPF, AAPF; experiment: PPIase activity of site-directed Pin1 mutants and parvulin; type: biochemical
Excerpt: To test these predictions from the model, site-directed Pin1 mutants were generated and their PPIase activity assayed as described herein and in K. P. Lu, S. D. Hanes, T. Hunter, Nature 380:544 (1996); K. P. Lu and T. Hunter, Cell 81:413 (1995).
Site-directed mutations of Pin1 were introduced using PCR-based techniques and verified by DNA sequencing. The corresponding mutant proteins were expressed and purified using the same procedures as those described for wild-type Pin1. PPIase activity was measured, as described previously (Lu et al., 1996), with the exception that the absorbance of p-nitroaniline (at 395 nM) was followed every second for 2-10 min. and data were analyzed offline using a kinetic computer program written by G. Tucker-Kellogg in the C.

Molecule	interaction with Cdc25 or Cdc27 (Cdc25, Cdc27)	binding of MPM-2 antigens (MPM-2 antigens)	precipitation by Pin1 (Pin1 [2])	Binding Confirmed (Pin1 [3])	other results
Pin1^R68,69A: Pin1 mutant with Ala substitutions at Arg68 and Arg69	neither mutant Pin1^R68,69A nor Pin1^H59A interacted with Cdc25 or Cdc27	significantly reduced compared to the wild-type protein			effect on Cdc25 activity (mitotic GST-Cdc25): neither the mutant Pin1^R68,69A at the same concentration (0.67 μM), or BSA at a 25 fold higher concentration (15 μM) had a significant inhibitory effect on Cdc25 activity
Plk1: Polo-like kinase, mitotic phosphoprotein			bound selectively only to the mitotically hyperphosphorylated form	Yes	Interaction with Pin1, Mitotic (Pin1 [1]): +++
Pin1^H59A: Pin1 mutant with Ala substitution at His-59	neither mutant Pin1^R68,69A nor Pin1^H59A interacted with Cdc25 or Cdc27	significantly reduced compared to the wild-type protein			
B1					isomerization of pS-P peptidyl bonds ([4]; phosphorylated peptide): failed to catalyze the isomerization of pS-P peptidyl bonds; catalytic activity for the unphosphorylated peptide substrate ([4]; unphosphorylated peptide): very effective in catalyzing the P isomerization of the unphosphorylated peptide
B2			bound selectively only to the mitotically hyperphosphorylated form	Yes	
